Measurements reported in patent US20060263855A1.

Biological target: α-Hemoglobin (αHb) (UniProt P69905)
Assay: cell-based or functional assay

UniProt P69905, sequence (P69905 2-142): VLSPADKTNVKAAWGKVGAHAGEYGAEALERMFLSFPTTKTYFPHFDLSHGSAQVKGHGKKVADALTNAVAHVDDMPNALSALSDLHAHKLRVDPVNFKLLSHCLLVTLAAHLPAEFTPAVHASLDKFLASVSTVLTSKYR

Q: How did the Acceleration of rate of αHb oxidation by AHSP (ratio of oxidation rate constants) turn out when “α-hemoglobin stabilizing protein (AHSP) (from UniProt Q9NZD4 1-102)” was run?
A: 6.2
